We go through three molecules from article PMC5725882 (Cell Discovery, 2017).

Holding throughout (details): both partners purified
Assay [1] has as its target T1, full-length wild-type p97 (^FLp97^wt) (UniProt P55072 1-806).
T1 construct: p97 (valosin-containing protein, VCP), full-length, residues 1-806; also called VCP; valosin-containing protein; source: purified; expression and purification as described previously [13, 42, 44]
Put plainly: pull-down; GST-VIMP variants on glutathione resin, p97 proteins in solution; 20 mM Tris pH 8.0, 150 mM NaCl, 3 mM MgCl2, 10% glycerol, 0.1% Triton X-100, 4 C, 2 mM ATPγS or AMP-PNP (Figures 3b and 4e: AMP-PNP); SDS-PAGE.

For assay [2], the target named is T2, N-D1 fragment of p97 A232E, long form (^ND1p97^mt, residues 1-480) (UniProt P55072 1-480, A232E).
T2 construct: p97 (VCP), N-D1 fragment, residues 1-480, pathogenic mutation A232E; also called ND1p97 A232E (1-480); source: purified; expression and purification as described previously [13, 42, 44]
T2 sequence (P55072 1-480 A232E): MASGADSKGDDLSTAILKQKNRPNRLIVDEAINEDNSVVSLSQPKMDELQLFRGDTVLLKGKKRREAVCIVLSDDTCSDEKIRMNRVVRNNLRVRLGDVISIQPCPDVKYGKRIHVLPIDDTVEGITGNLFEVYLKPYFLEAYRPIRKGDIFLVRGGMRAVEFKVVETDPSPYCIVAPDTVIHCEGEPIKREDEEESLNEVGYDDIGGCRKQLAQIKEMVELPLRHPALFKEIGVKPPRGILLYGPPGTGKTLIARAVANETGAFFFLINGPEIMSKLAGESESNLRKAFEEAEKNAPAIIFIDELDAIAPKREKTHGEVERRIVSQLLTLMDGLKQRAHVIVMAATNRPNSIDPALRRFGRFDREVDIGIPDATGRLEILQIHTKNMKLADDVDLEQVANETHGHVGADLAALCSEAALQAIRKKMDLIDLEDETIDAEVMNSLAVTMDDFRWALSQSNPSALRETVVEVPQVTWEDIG
The assay is described as above.

Assay [3] has as its target T3, full-length p97 L198W (^FLp97^mt) (UniProt P55072 1-806, L198W).
T3 construct: p97 (VCP), full-length, residues 1-806, MSP1-associated mutation L198W; also called FLp97 L198W; pathogenic p97 variant L198W; source: purified; expression and purification as described previously [13, 42, 44]
The description is as above.

The target in assay [4] is T4, full-length p97 A232E (^FLp97^mt) (UniProt P55072 1-806, A232E).
T4 construct: p97 (VCP), full-length, residues 1-806, MSP1-associated mutation A232E; also called FLp97 A232E; pathogenic p97 variant A232E; source: purified; expression and purification as described previously [13, 42, 44]
T4 sequence (P55072 whole entry A232E, the tested form may be a part): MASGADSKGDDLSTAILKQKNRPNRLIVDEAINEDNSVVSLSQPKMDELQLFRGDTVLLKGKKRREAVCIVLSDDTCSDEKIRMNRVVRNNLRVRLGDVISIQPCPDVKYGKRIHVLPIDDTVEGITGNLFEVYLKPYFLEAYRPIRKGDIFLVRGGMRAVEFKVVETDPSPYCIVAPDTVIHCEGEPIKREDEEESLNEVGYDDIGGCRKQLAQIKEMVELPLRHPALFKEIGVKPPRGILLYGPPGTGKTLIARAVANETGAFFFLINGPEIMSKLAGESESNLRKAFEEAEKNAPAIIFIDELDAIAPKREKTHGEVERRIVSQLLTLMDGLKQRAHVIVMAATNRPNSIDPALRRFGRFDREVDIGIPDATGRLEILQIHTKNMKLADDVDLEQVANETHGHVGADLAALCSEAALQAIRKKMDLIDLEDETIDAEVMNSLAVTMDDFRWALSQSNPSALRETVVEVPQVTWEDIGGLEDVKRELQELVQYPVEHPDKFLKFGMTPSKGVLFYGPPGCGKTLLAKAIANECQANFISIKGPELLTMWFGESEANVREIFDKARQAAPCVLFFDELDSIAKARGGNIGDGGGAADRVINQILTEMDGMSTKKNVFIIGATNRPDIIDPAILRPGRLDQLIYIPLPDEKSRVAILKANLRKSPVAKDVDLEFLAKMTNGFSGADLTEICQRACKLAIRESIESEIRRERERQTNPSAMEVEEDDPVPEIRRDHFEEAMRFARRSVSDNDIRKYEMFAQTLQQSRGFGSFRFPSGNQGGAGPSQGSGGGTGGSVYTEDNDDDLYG
The description is as above.

Assay [5] deals with T5, N-D1 fragment of p97 R155H, long form (^ND1p97^mt, residues 1-480) (UniProt P55072 1-480, R155H).
T5 construct: p97 (VCP), N-D1 fragment, residues 1-480, pathogenic mutation R155H; also called ND1p97 R155H; source: purified; expression and purification as described previously [13, 42, 44]
T5 sequence (P55072 1-480 R155H): as the sequence (P55072 1-480 A232E) above, with R155H, E232A counted along it
The assay is described as above.

The target in assay [6] is T6, full-length p97 R155H (^FLp97^mt) (UniProt P55072 1-806, R155H).
T6 construct: p97 (VCP), full-length, residues 1-806, MSP1-associated mutation R155H; also called FLp97 R155H; pathogenic p97 variant R155H; source: purified; expression and purification as described previously [13, 42, 44]
T6 sequence (P55072 whole entry R155H, the tested form may be a part): as the sequence (P55072 whole entry A232E, the tested form may be a part) above, with R155H, E232A counted along it
The description is as above.

The target in assay [7] is T7, N-D1 fragment of wild-type p97, long form (^ND1p97^wt, residues 1-480) (UniProt P55072 1-480).
T7 construct: p97 (VCP), N-D1 fragment, residues 1-480 (the form used in pull-down and ITC); also called N-D1 long; source: purified; expression and purification as described previously [13, 42, 44]
T7 sequence (P55072 1-480): as the sequence (P55072 1-480 A232E) above, with E232A counted along it
The description is as above.

Assay [8] deals with T8, N-D1 fragment of p97 L198W, long form (^ND1p97^mt, residues 1-480) (UniProt P55072 1-480, L198W).
T8 construct: p97 (VCP), N-D1 fragment, residues 1-480, pathogenic mutation L198W; also called ND1p97 L198W (1-480); source: purified; expression and purification as described previously [13, 42, 44]
T8 sequence (P55072 1-480 L198W): as the sequence (P55072 1-480 A232E) above, with L198W, E232A counted along it
The description is as above.

Assay [9] addresses T9, FLp97wt (full-length wild-type p97, residues 1-806) (UniProt P55072 1-806).
T9 construct: p97 (valosin-containing protein, VCP), full length, residues 1-806, wild type; also called VCP; valosin-containing protein
Put plainly: ITC; VIMPx titrated into p97; iTC200, 25 C; 50 mM Tris pH 8.0, 150 mM NaCl, 2 mM MgCl2, 5% glycerol; 2 mM AMP-PNP in both samples; one-site model. (In general: In ITC the heat of successive injections is recorded.)

For assay [10], the target named is T10, ND1p97wt (N-D1 fragment of wild-type p97, residues 1-480) (UniProt P55072 1-480).
T10 construct: p97 (valosin-containing protein, VCP), N-D1 long fragment, residues 1-480, wild type; also called N-D1 long; ND1p97 (residue 1-480)
T10 sequence (P55072 1-480): as the sequence (P55072 1-480 A232E) above, with E232A counted along it
The assay is described as above.

The target in assay [11] is T10, ND1p97wt (N-D1 fragment of wild-type …). Put plainly: ITC; VIMPx titrated into p97; iTC200, 25 C; 50 mM Tris pH 8.0, 150 mM NaCl, 2 mM MgCl2, 5% glycerol; 2 mM ADP in both samples; one-site model.

In general, Kd refers to the equilibrium constant for the complex coming apart. The low end stands for a tighter complex, the high end for a looser complex. Usually stoichiometry N stands for a count of units in the complex or per binding partner.

T1 sequence (P55072 whole entry, the tested form may be a part): as the sequence (P55072 whole entry A232E, the tested form may be a part) above, with E232A counted along it
T9 sequence (P55072 whole entry, the tested form may be a part): as the sequence (P55072 whole entry A232E, the tested form may be a part) above, with E232A counted along it
T3 sequence (P55072 whole entry L198W, the tested form may be a part): as the sequence (P55072 whole entry A232E, the tested form may be a part) above, with L198W, E232A counted along it

B1: GST-VIMP minimal fragment (A69-E108) (domain or fragment, UniProt Q9BQE4 69-108, looked up)
chain: AVEPDVVVKRQEALAAARLKMQEELNAQVEKHKEKLKQLE
notes: VIMP (selenoprotein S), 40 residues A69-E108; source: held on glutathione resin
In the case of B1, the binding result in [1] is “binds”.

B2: GST-tagged cytosolic segment of VIMP (GST-VIMPc, residues 49-187) (domain or fragment, UniProt Q9BQE4 49-187, looked up)
chain: QKLSARLRALRQRQLDRAAAAVEPDVVVKRQEALAAARLKMQEELNAQVEKHKEKLKQLEEEKRRQKIEMWDSMQEGKSYKGNAKKPQEEDSPGPSTSSVLKRKSDRKPLRGGGYNPLSGEGGGACSWRPGRRGPSSGG
notes: source: held on glutathione resin
B2: the binding result in assay [2], in [3], in assay [4], in [5], in assay [6] and in assay [1] was “binds” each time. Also, the binding result in assay [7] and in assay [8] was “binds” in each case.

B3: VIMPx (VCP-interacting membrane protein, residues 49-122) (domain or fragment, UniProt Q9BQE4 49-122, looked up)
chain: QKLSARLRALRQRQLDRAAAAVEPDVVVKRQEALAAARLKMQEELNAQVEKHKEKLKQLEEEKRRQKIEMWDSM
notes: VIMP (selenoprotein S), fragment of the cytosolic segment, residues 49-122 (stop codon after M122); also called His-VIMPx; selenoprotein S; source: E. coli BL21(DE3), purified (Ni-NTA, Superdex 75)
On to B3, for which the Kd turned out to be 7 ± 0.13 µM in assay [9], 5.52 ± 0.26 µM in assay [10] and 6.21 ± 0.85 µM in [11]. The “stoichiometry N” value was determined as 0.66 ± 0.08 in assay [9], 0.98 ± 0.05 in [10] and 1.13 ± 0.06 in assay [11].
